{
  "source": "patent US11667697",
  "about": "(VANDERBILT UNIVERSITY, dated 2023)",
  "binders": {"B1": {"name": "MPXV-87 (antibody, V domains shown)", "V domain 1": "QVQLVQSGAEVKKPGASVKVSCKASGYTFTSHGIIWVRQAPGQGLEWMGWISVYNDNTNSAQKFQDRVTMTTATSTSTAYMELRSLRSDDTAVYYCARSSSGPRYYYYGMDVWGQGTTSP", "V domain 2": "QSVVTQPPSVSGAPGQRVTISCTGSSSNIGAGYAVHWYYQLPGIAPKLLIFGNNNRPSGVPDRFSGSKSGTSASLAITGLQAEDEADYYCQSYDSSLSGWVFGGGTQVTVL", "notes": "human IgG1, anti-L1"}, "B2": {"name": "MPXV-92 (antibody)", "chain 1": "QVQLVESGPGLVKPSGTLSLTCAVSGGSISSSNWWSWVRQPPGKGLEWIGEIYHSGSTNYTPSLKSRVTISLDKSKNQFSLKLSSVTAADTAMYYCARNFYPGYLQYWGQGTLVTVSS", "chain 2": "QSALTQPASVSGSPGQSITISCTGTISDVGGYNYVSWYQQHPGKAPKLMIYDVNKRPSGVSNRFSGSKSGNT"}, "B3": {"name": "VACV-77 (antibody, V domains shown)", "VH": "QVQLQESGPGLVKPSETLSLTCTVSGGSMSSYFWSWIRQPPGKGLEWIGYISYSGGTNYNPSLKSRVTISVDTSKNQFSLKLTSVTAADTAVYYCAREDRGSPDYWGQGTLVTVSS", "VL": "QSVLTQPPSVSAAPGRKVTISCSGSSSNIGNNYVSWYQQLPGTAPKLLIYDNYKRPSGIPDRFSGSKSGTSATLGITGLQTGDEADYYCGTWDLSLSAGVFGGGTKLTVL"}},
  "key": {"[1]": {"target": "T1, VACV L1 protein (vaccinia virus, UniProt P07612 1-185)", "T1 sequence": "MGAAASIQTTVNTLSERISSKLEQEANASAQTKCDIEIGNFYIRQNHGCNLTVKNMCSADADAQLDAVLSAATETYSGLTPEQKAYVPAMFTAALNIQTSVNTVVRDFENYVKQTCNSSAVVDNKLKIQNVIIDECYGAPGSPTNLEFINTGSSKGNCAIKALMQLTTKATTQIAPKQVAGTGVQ", "assay": "lysate ELISA"}, "[2]": {"target": "T1, VACV L1 protein", "assay": "cell-based or functional assay"}, "[3]": {"target": "T1, VACV L1 protein", "assay": "purified antigen ELISA"}, "[4]": {"target": "CPXV ortholog of B5 (cowpox virus)", "assay": "lysate ELISA"}, "[5]": {"target": "T2, VACV B5 protein (vaccinia virus, UniProt Q01227 20-275)", "assay": "lysate ELISA"}, "[6]": {"target": "MPXV ortholog of B5 (monkeypox virus)", "assay": "lysate ELISA"}, "[7]": {"target": "CPXV ortholog of B5 (cowpox virus)", "assay": "cell-based or functional assay"}, "[8]": {"target": "T2, VACV B5 protein", "assay": "cell-based or functional assay"}, "[9]": {"target": "VARV ortholog of B5 (variola virus)", "assay": "purified antigen ELISA"}, "[10]": {"target": "T2, VACV B5 protein", "assay": "purified antigen ELISA"}, "[11]": {"target": "T3, VACV D8 protein (vaccinia virus, UniProt P04195 1-261)", "T3 sequence": "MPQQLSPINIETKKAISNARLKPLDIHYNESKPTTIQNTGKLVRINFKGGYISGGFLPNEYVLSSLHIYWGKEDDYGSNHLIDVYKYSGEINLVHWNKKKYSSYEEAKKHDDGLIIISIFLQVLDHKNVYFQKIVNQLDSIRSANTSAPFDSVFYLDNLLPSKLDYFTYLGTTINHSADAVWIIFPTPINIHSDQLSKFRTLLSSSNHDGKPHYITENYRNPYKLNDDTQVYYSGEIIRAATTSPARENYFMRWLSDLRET", "assay": "antigen ELISA/array/BLI"}},
  "data": [
    {"binder": "B1", "values": [
      {"measurement": "EC50", "setting": "[1]", "result": 0.01, "unit": "µg/mL"},
      {"measurement": "PRNT Emax, VACV MV", "setting": "[2]", "result": 61, "unit": "%"},
      {"measurement": "PRNT Emax, VACV MV+C'", "setting": "[2]", "result": 72, "unit": "%"},
      {"measurement": "PRNT IC50, VACV MV", "setting": "[2]", "result": 5, "unit": "µg/mL"},
      {"measurement": "PRNT IC50, VACV MV+C'", "setting": "[2]", "result": 0.8, "unit": "µg/mL"},
      {"measurement": "EC50", "setting": "[3]", "result": 0.3, "unit": "µg/mL"}
    ]},
    {"binder": "B2", "values": [
      {"measurement": "EC50", "setting": "[4]", "result": 0.014, "unit": "µg/mL"},
      {"measurement": "EC50", "setting": "[5]", "result": 0.064, "unit": "µg/mL"},
      {"measurement": "EC50", "setting": "[6]", "result": 0.046, "unit": "µg/mL"},
      {"measurement": "PRNT IC50, CPXV EV+C'", "setting": "[7]", "result": 0.5, "unit": "µg/mL"},
      {"measurement": "PRNT Emax, VACV EV+C'", "setting": "[8]", "result": 86, "unit": "%"},
      {"measurement": "PRNT IC50, VACV EV+C'", "setting": "[8]", "result": 0.08, "unit": "µg/mL"},
      {"measurement": "EC50", "setting": "[9]", "result": 1.2, "unit": "µg/mL"},
      {"measurement": "EC50", "setting": "[10]", "result": 0.7, "unit": "µg/mL"}
    ]},
    {"binder": "B3", "values": [
      {"measurement": "binding result", "setting": "[11]", "result": "binds"}
    ]}
  ]
}
